Source: PMC4698670

Legend:
[1] = biological target: T1, recombinant human PRX1 (Sigma-Aldrich) (human) (UniProt Q06830)
T1 sequence: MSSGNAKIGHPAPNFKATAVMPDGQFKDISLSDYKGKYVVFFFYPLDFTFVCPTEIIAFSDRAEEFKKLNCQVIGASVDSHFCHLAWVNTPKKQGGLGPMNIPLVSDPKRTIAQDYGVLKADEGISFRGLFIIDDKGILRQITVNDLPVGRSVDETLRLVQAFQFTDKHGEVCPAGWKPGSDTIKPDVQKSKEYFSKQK

[2] = biological target: T1, recombinant human PRX1 (Sigma-Aldrich) (human); remark: listed apart in the source

PRX1 peroxidase activity in vitro (NADPH consumption rate, reaction mix normalized to 1.00; PRX1 alone 4.38) with fortilin (ΔL7R) added [1]: 5.9 A.U.
decrease of PRX1 enzymatic activity (NADPH consumption rate) by Mst1 in the presence of fortilin (ΔL7R) (PRX1 alone: 75.3% decrease) [2]: 77.9 % decrease
B1: recombinant fortilin_(ΔL7R) tagged with Strep-tag (natural protein)
chain: MIIYRDRISHDEMFSDIYKIREIADGLCLEVEGKMVSRTEGNIDDSLIGGNASAEGPEGEGTESTVITGVDIVMNHHLQETSFTKEAYKKYIKDYMKSIKGKLEEQRPERVKPFMTGAAEQIKHILANFKNYQFFIGENMNPDGMVALLDYREDGVTPYMIFFKDGLEMEKC
